Reference: patent publication US20070048315A1
Values joined by “and” are separate entries in the source; they are usually repeats but may differ in a detail not shown here. Equal entries are not always repeated.

Columns and labels:
[1] = target: "Bac-wt" human IL-23 (identical to elastikine human IL-23 in sequence, expressed in SF9 cells) (human) (UniProt P29460); test: BIAcore SPR, mAb amine-coupled on CM5 chip, IL-23 in solution, 25 C
[2] = target: "N222Q" human IL-23 (elastikine sequence with Asn222 to Gln in the p40 subunit, expressed in SF9 cells) (human) (UniProt P29460); test: as above

Binder	Kd [1] [nM]	Kd [2]
humanized anti-human IL-23p19 antibody hum7G10 (antibody, human IgG1, kappa, V domains shown) VH: QVQLVQSGAEVKKPGASVKVSCKASGYTFTSNVMHWVRQAPGQGLEWMGYINPYNDGTKYNEKFKGRVTMTTDTSTSTAYMELRSLRSDDTAVYYCARNWDVAYWGQGTLVTVSS VL: DIQMTQSPSSLSASVGDRVTITCRASQSISDYLHWYQQKPGKAPKLLIYYASQSISGVPSRFSGSGSGTDFTLTISSLQPEDFATYYCQNGHSFPFTFGQGTKVEIKR	10	0.3 nM and 1 nM
humanized anti-human IL-23p19 antibody hum6H12 (antibody, human IgG1, kappa, V domains shown) VH: QVQLVQSGAEVKKPGASVKVSCKASGYTFNRYLIHWVRQAPGQGLEWMGYINPNNAGTNYNEKFKGRVTMTTDTSTSTAYMELRSLRSDDTAVYYCARNWDQAYWGQGTLVTVSS VL: DIQMTQSPSSLSASVGDRVTITCRASQSISDYLHWYQQKPGKAPKLLIYYTSQSISGVPSRFSGSGSGTDFTLTISSLQPEDFATYYCQNGHSFPFTFGQGTKVEIKR	5.1	0.5 nM
